One block for each substance: values may come before it.
Experiments:
[1] = molecular target: ubiquitin C-terminal five-residue peptide (Homo sapiens); settings: cited from earlier work
[2] = molecular target: FITC-β-Ala-β-Ala-LQDGF; assay: fluorescence polarisation
[3] = molecular target: GST (Schistosoma japonicum) [GST: P08515]; settings: cited from earlier work
[4] = molecular target: ubiquitin (Homo sapiens) (UniProt P0CG48); settings: cited from earlier work
[5] = molecular target: FITC-β-Ala-β-Ala-ALRGG (human); assay: fluorescence polarisation
[6] = molecular target: FITC-β-Ala-β-Ala-RGMGG (human); assay: fluorescence polarisation
[7] = molecular target: FITC-β-Ala-β-Ala-IAKGG; assay: fluorescence polarisation
[8] = molecular target: FITC-β-Ala-β-Ala-NALGG; assay: fluorescence polarisation
[9] = molecular target: FITC-β-Ala-β-Ala-FDGFM; assay: fluorescence polarisation
[10] = molecular target: FITC-β-Ala-β-Ala-YGFGG (human); assay: fluorescence polarisation
[11] = molecular target: FITC-β-Ala-β-Ala-RLRGG (human); assay: fluorescence polarisation
[12] = molecular target: FITC-β-Ala-β-Ala-STLGG (human); assay: fluorescence polarisation
[13] = molecular target: FITC-β-Ala-β-Ala-RARGG (human); assay: fluorescence polarisation

Chain of HDAC6 BUZ (Q9UBN7 1111-1209): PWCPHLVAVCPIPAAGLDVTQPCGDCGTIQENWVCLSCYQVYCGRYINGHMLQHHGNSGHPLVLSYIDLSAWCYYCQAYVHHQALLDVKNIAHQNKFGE
Chain of Ubp-M BUZ (Q9Y5T5 22-142): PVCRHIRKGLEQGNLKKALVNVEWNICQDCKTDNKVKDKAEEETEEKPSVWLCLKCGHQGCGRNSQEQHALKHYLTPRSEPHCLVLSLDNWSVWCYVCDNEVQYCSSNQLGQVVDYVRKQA

Substance: Ubp-M BUZ (from UniProt Q9Y5T5)
- Kd [1]: 15.9 µM

- Kd [2]: 4.6 µM
Substance: GST-Abl2 SH2 domain fusion protein (from UniProt P42684 173-263) (domain or fragment)

Substance: GST (from UniProt P08515)
- Kd [3]: 0.33 µM

Substance: HDAC6 BUZ (from UniProt Q9UBN7)
- Kd [4]: 0.06 µM

- Kd [5]: 2.5 µM
- Kd [6]: 1.3 µM
- Kd [7]: 8.8 µM
- Kd [8]: 0.79 µM
- Kd [2]: 4 µM
- Kd [9]: 10.8 µM
- Kd [10]: 6.2 µM
- Kd [11]: 0.34 µM
- Kd [12]: 3.7 µM
- Kd [13]: 0.47 µM
Substance: GST-HDAC6 BUZ (from UniProt Q9UBN7 1059-1215) (domain or fragment)
